Laboratory results from the supplement of paper PMC9112550, “Optimization of the antimicrobial peptide Bac7 by deep mutational scanning” (BMC Biology, 2022).

System: Escherichia coli TOP10
Assay: shrunken log2 fold change of peptide-encoding DNA abundance (4.5 h post-induction vs induction); higher = less antimicrobial activity (less host growth inhibition)
Conditions: time post-induction: 4.5 h; library: site-saturation at positions 5, 18, 19, 20
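Note: peptides expressed intracellularly from a pBAD plasmid library in pooled LB shake-flask culture, induced with 0.3% L-arabinose, DNA abundance read by NGS, three biological replicates, DESeq2 with apeglm shrinkage.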

RRIRSRPPRLPRPRPRPVFCPRP
shrunken log2 fold change: -0.024

RRIRERPPRLPRPRPRPLYDPRP
shrunken log2 fold change: -1.62

RRIRNRPPRLPRPRPRPARVPRP
shrunken log2 fold change: 0.574

RRIRARPPRLPRPRPRPKMQPRP
shrunken log2 fold change: 0.32

RRIRGRPPRLPRPRPRPWNAPRP
shrunken log2 fold change: 0.109

RRIRERPPRLPRPRPRPRGWPRP
shrunken log2 fold change: 0.917

RRIRVRPPRLPRPRPRPFRMPRP
shrunken log2 fold change: -0.247

RRIRLRPPRLPRPRPRPFDFPRP
shrunken log2 fold change: -0.281

RRIRMRPPRLPRPRPRPERHPRP
shrunken log2 fold change: 0.764

RRIRMRPPRLPRPRPRPTGCPRP
shrunken log2 fold change: 0.588

RRIRERPPRLPRPRPRPHDEPRP
shrunken log2 fold change: 0.00178

RRIRERPPRLPRPRPRPTEAPRP
shrunken log2 fold change: 0.0834

RRIRQRPPRLPRPRPRPEALPRP
shrunken log2 fold change: -0.0434

RRIRSRPPRLPRPRPRPWVMPRP
shrunken log2 fold change: -0.0894

RRIRVRPPRLPRPRPRPEQSPRP
shrunken log2 fold change: 0.362

RRIRERPPRLPRPRPRPCHTPRP
shrunken log2 fold change: -0.0292

RRIRERPPRLPRPRPRPMHTPRP
shrunken log2 fold change: 0.102

RRIRHRPPRLPRPRPRPSGFPRP
shrunken log2 fold change: 0.112

RRIRQRPPRLPRPRPRPMSQPRP
shrunken log2 fold change: -0.0185

RRIRIRPPRLPRPRPRPSDSPRP
shrunken log2 fold change: -0.0385

RRIRLRPPRLPRPRPRPRRGPRP
shrunken log2 fold change: 0.543

RRIRGRPPRLPRPRPRPCKTPRP
shrunken log2 fold change: 0.0121

RRIRKRPPRLPRPRPRPMMVPRP
shrunken log2 fold change: 0.0826

RRIRIRPPRLPRPRPRPTGLPRP
shrunken log2 fold change: 0.375

RRIRIRPPRLPRPRPRPPSLPRP
shrunken log2 fold change: 0.18

RRIRHRPPRLPRPRPRPMKHPRP
shrunken log2 fold change: -0.0367

RRIRMRPPRLPRPRPRPGCWPRP
shrunken log2 fold change: 0.984

RRIRLRPPRLPRPRPRPVVYPRP
shrunken log2 fold change: -0.058

RRIRARPPRLPRPRPRPMDVPRP
shrunken log2 fold change: 0.241

RRIRWRPPRLPRPRPRPWAFPRP
shrunken log2 fold change: 0.044

RRIRERPPRLPRPRPRPGDYPRP
shrunken log2 fold change: -0.0324

RRIRCRPPRLPRPRPRPKFHPRP
shrunken log2 fold change: -0.498

RRIRHRPPRLPRPRPRPTGLPRP
shrunken log2 fold change: -0.515

RRIRARPPRLPRPRPRPIQDPRP
shrunken log2 fold change: 0.0826

RRIRARPPRLPRPRPRPMGIPRP
shrunken log2 fold change: -0.00146

RRIRSRPPRLPRPRPRPWMGPRP
shrunken log2 fold change: -0.238

RRIRSRPPRLPRPRPRPQTTPRP
shrunken log2 fold change: -0.237

RRIRGRPPRLPRPRPRPKKGPRP
shrunken log2 fold change: 0.765

RRIRIRPPRLPRPRPRPTYYPRP
shrunken log2 fold change: -0.827

RRIRPRPPRLPRPRPRPCRNPRP
shrunken log2 fold change: -0.176

RRIRPRPPRLPRPRPRPCDMPRP
shrunken log2 fold change: -0.217

RRIRQRPPRLPRPRPRPQFYPRP
shrunken log2 fold change: -0.407

RRIRSRPPRLPRPRPRPIFTPRP
shrunken log2 fold change: -0.275

RRIRVRPPRLPRPRPRPVYGPRP
shrunken log2 fold change: -0.167

RRIRWRPPRLPRPRPRPMMQPRP
shrunken log2 fold change: 0.195

RRIRKRPPRLPRPRPRPGTYPRP
shrunken log2 fold change: -0.0508

RRIRGRPPRLPRPRPRPCCHPRP
shrunken log2 fold change: 0.345

RRIRNRPPRLPRPRPRPHTAPRP
shrunken log2 fold change: -0.158

RRIRSRPPRLPRPRPRPFICPRP
shrunken log2 fold change: -0.163

RRIRIRPPRLPRPRPRPYIQPRP
shrunken log2 fold change: -1.75

RRIRGRPPRLPRPRPRPDCVPRP
shrunken log2 fold change: 1.39

RRIRTRPPRLPRPRPRPAEYPRP
shrunken log2 fold change: -0.162

RRIRVRPPRLPRPRPRPNTAPRP
shrunken log2 fold change: -0.147

RRIRFRPPRLPRPRPRPSDMPRP
shrunken log2 fold change: -0.11

RRIRDRPPRLPRPRPRPWPYPRP
shrunken log2 fold change: -0.0943

RRIRMRPPRLPRPRPRPLGFPRP
shrunken log2 fold change: 0.772

RRIRCRPPRLPRPRPRPGSKPRP
shrunken log2 fold change: -0.179

RRIRLRPPRLPRPRPRPKDLPRP
shrunken log2 fold change: -0.242

RRIRSRPPRLPRPRPRPSTLPRP
shrunken log2 fold change: 0.658

RRIRDRPPRLPRPRPRPENNPRP
shrunken log2 fold change: 0.264
